What is called IC50 is the concentration at which inhibition is half-maximal.

Results on five molecules are retold here after US20150132307A1 (Hoffmann-La Roche, published 2015).

The target of assay [1] is T1, Human recombinant soluble TWEAK (Example 6) (human, UniProt O43508 99-249, limits assumed).
T1 sequence: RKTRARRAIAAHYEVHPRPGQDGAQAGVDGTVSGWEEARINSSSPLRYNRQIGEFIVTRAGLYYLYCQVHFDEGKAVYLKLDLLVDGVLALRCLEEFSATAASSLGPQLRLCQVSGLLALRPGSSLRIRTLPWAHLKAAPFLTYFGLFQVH
Kind of assay: cell-based or functional assay.

Assay [2] deals with T2, Biotinylated human soluble TWEAK (amino acids 99-249 of SEQ ID NO: 68) (human, UniProt O43508 99-249, biotinylated).
T2 construct: also called Human TWEAK
T2 sequence: T1 sequence
Kind of assay: SPR (Biacore 2000), biotinylated soluble TWEAK on streptavidin chip, antibody 100 nM as analyte, 25 C. The method, then: A Biacore 2000 instrument was used with a Biacore streptavidin coated sensor mounted into the system. The system buffer HBS-ET (10 mM HEPES pH 7.4, 150 mM NaCl, 1 mM EDTA, 0.05% Tween® 20) was used at a flow rate of 100 μl/min. The sample buffer was the system buffer. Biotinylated human soluble TWEAK (amino acids 99-249 of SEQ ID NO: 68) and biotinylated murine soluble TWEAK (amino acids 81-225 of SEQ ID NO: 69) was immobilized on different flow cells on the SA sensor at 150 RU each. The flow cell FC1 was used as a blank reference cell. Each antibody was injected into the system as an analyte at 100 nM at 100 μl/min for 2 min association time. The dissociation of the immunecomplexes were monitored for 5 min. The sensor surface was washed with HBS-ET for 10 seconds and regenerated using 2×2 minutes injections with 10 mM glycine pH 2.25. This procedure was done at 25° C. The kinetically rate limiting step of the complex dissociation phase in the interval [240 s-300 s] was taken to calculate the dissociation rate kd [1/s] (Biacore Evaluation Software 4.0). According to the equation t1/2 diss=ln(2)/(60×kd), the half-life of the immunocomplexes in minutes was calculated.
On the technique in general: Surface plasmon resonance follows binding to a sensor surface in real time, without labels.

For assay [3], the target named is T3, human Flag-tagged soluble TWEAK (amino acids 106-249) (human, UniProt O43508 106-249).
T3 construct: The sentence gives amino acids 106-249 without naming the entry; also called Human TWEAK; not shown: Flag tag
T3 sequence: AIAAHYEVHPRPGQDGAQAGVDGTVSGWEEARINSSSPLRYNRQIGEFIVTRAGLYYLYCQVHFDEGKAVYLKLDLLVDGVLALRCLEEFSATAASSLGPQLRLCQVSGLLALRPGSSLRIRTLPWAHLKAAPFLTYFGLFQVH
Nature of the assay: receptor interaction ELISA: Flag-TWEAK 2.5 ng/ml preincubated with antibody, then on coated human Fn14:Fc (competitor m21). The method, then:
96-well Maxisorp® plates (Nunc) were coated with 100 μl 1 μg/ml human Fn14:Fc (extracellular domain of human Fn14 (amino acids 1-75 of SEQ ID NO: 98) fused to Fc portion of human IgG1) in PBS per well for 1.5 h at room temperature and blocked with a solution of 5% FBS in PBS for 30 minutes at room temperature under shaking. […] After washing the Fn14-coated plate once with wash buffer (0.1% Tween® 20 in PBS), 100 μl of the TWEAK-antibody solution were transferred to each well and the plate was incubated for 1 h at room temperature, followed by four washes with wash buffer. Wells were filled with 100 μl of anti-FLAG-HRP detection antibody, diluted 1:5000 in blocking buffer, and incubated for 1 h at room temperature. After four more wash steps, the signal was developed by addition of 100 μl 3,3,5,5-Tetramethylbenzidine (TMB) solution for approximately ten minutes. The reaction was stopped by adding 100 μl of 1 N HCl, and absorbance measured at 450 nm (reference wavelength 620 nm).
A general note: An ELISA detects its analyte on a solid surface through an enzyme-linked reagent.

Another assay deals with T4, IL-17 A/F (human, UniProt Q16552 24-155; Q96PD4 31-163).
T4 construct: read as the heterodimer of IL17A and IL17F
Nature of the assay: SPR (BIAcore T100), antibody captured by anti-human F(ab')2, IL17 as analyte, 25 C, 1:1 model. The method, then:
(§1) Around 12000 resonance units (RU) of the capturing system (10 μg/ml goat anti human F(ab′)2; Order Code: 28958325; GE Healthcare Bio-Sciences AB, Schweden) were coupled on a CMS chip at pH 5.0 by using an amine coupling kit supplied by the GE Healthcare. The sample and system buffer was PBS-T (10 mM phosphate buffered saline including 0.05% Tween20) pH 7.4. The bispecific antibody was captured by injecting a 50 nM solution for 1 min at a flow of 10 μl/min. Association was measured by injection human IL17 in various concentrations in solution for 3 min at a flow of 30 μl/min starting with 50 nM in 1:1 dilutions. The dissociation phase was monitored for up to 5 min and triggered by switching from the sample solution to running buffer. The surface was regenerated by two times 60 sec. washing with a glycin pH 2.1 solution at a flow rate of 30 μl/min. Bulk refractive index differences were corrected by subtracting the response obtained from a goat anti human F(ab′)2 surface. Blank injections are also subtracted (=double referencing). For calculation of apparent KD and other kinetic parameters the Langmuir 1:1 model was used.

The target in another assay is T5, IL-17 F/F (human, UniProt Q96PD4 31-163).
T5 construct: read as the homodimer of IL17F
T5 sequence: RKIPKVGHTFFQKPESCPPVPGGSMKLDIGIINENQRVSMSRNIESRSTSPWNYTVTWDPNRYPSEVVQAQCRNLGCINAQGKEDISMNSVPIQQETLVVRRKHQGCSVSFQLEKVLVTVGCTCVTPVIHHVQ
Kind of assay: SPR (BIAcore T100), antibody captured by anti-human F(ab')2, IL17 as analyte, 25 C. The method, then: as §1

The target of assay [4] is T6, Recombinant human TWEAK (R&D Systems; Cat. #1090-TW/CF) (human, UniProt O43508 97-249, limits assumed).
T6 sequence: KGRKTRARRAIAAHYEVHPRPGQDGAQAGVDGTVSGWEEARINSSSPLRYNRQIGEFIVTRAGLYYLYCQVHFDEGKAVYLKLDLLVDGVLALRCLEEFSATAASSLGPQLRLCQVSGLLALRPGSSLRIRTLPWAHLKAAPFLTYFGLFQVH
Kind of assay: cell-based or functional assay.

A further assay concerns the target human IL17A/A (human, UniProt Q16552 24-155, limits assumed). Nature of the assay: SPR (BIAcore T100), antibody captured by anti-human F(ab')2, IL17 as analyte, 25 C, apparent KD, 1:1 model. The method, then: as §1
Assay [5] addresses T7, Mouse soluble TWEAK (untagged, Example 5) (mouse, UniProt O54907 105-249, limits assumed).
T7 construct: also called Murine TWEAK
T7 sequence: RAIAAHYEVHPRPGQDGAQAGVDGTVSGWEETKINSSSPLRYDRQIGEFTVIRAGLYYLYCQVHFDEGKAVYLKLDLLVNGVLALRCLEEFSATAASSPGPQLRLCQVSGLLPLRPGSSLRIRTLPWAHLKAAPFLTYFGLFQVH
Nature of the assay: receptor interaction ELISA: mouse soluble TWEAK 4 ng/ml preincubated with antibody, then on coated mouse Fn14:Fc (competitor m22). The method, then:
Briefly, Maxisorp plates were coated with mouse Fn14:Fc (extracellular domain of mouse Fn14 (amino acids 1-75 of SEQ ID NO: 98) fused to Fc portion of human IgG1) as described above for human Fn14:Fc, followed by blocking and washing. […] After 1 h of incubation at room temperature and four washes, biotinylated anti-mouse TWEAK antibody at 125 ng/ml in blocking buffer was added for 1 h at room temperature, followed by another four wash steps. The TWEAK antibody was detected by incubation with streptavidin-HRP, diluted 1:5000 in blocking buffer, for 30 minutes at room temperature. Signal was developed and absorbance measured as described above.

Sequence of human IL17A/A (Q16552 24-155 limits assumed): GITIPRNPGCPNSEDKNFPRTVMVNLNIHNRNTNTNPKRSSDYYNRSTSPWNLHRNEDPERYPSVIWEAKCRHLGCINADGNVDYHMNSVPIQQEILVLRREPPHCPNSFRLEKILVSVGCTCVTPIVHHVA
T4 sequence (Q16552 24-155 limits assumed, one chain of several): as the sequence (Q16552 24-155 limits assumed) above

B1: <TWEAK> 305chi (antibody, human IgG1, kappa, V domains shown)
VH: QEQLVESGGGLVQPGGSLTLSCKASGFDFSTYYMSWVRQAPGKGLEWIGTVYVRQGTTYYASWLNGRFTISSDNAQNTVDLKMNSLTAADTATYFCAKGGYNYDDAFVIWGPGTLVTVSF
VL: AIEMTQTPFSVSAAVGGTVTINCQASQNIYSNLAWYQQKPGQPPKLLMYTASYLASGVPSRFKGSGSRTEYTLTISGVQCADAATYYCQTAYYNSRPDTVAFGGGTEVVVKR
notes: Chimer: rabbit variable domains with human kappa and human IgG1 constant regions
In the case of B1, the “Inhibition of IL-8 Secretion IC50 [ng/ml] (A375 cells)” value (“Inhibition of IL-8 Secretion IC50” below) in assay [1] was 104 ng/mL. Also, in assay [2], the “t/2 diss [min] 25° C.” value stood at 147 min. Also, the IC50 in assay [3] came out at 2.6 ng/mL.

B2: Bispecific <Tweak-IL-17> #2 antibody (bispecific antibody, human IgG1, kappa)
heavy 1: not shown
heavy 2: not shown
light 1: DIVMTQSPLSLPVTPGEPASISCRSSQSLVHSNGDTYFHWYLQKPGQSPQLLIYKVSNRFSGVPDRFSGSGSGTDFTLKISRVEAEDVGVYYCSQTTHAPFTFGQGTKLEIKRTVAAPSVFIFPPSDEQLKSGTASVVCLLNNFYPREAKVQWKVDNALQSGNSQESVTEQDSKDSTYSLSSTLTLSKADYEKHKVYACEVTHQGLSSPVTKSFNRGEC
light 2: DIQMTQSPSSVSASVGDRVTITCQASQNIYSNLAWYQQKPGKAPKLLIYTASYLASGVPSRFSGSGSGTDYTLTISSLQPEDFATYYCQTAYYNSRPDTVAFGGGTKVEIKSSASTKGPSVFPLAPSSKSTSGGTAALGCLVKDYFPEPVTVSWNSGALTSGVHTFPAVLQSSGLYSLSSVVTVPSSSLGTQTYICNVNHKPSNTKVDKKVEPKSC
notes: Bivalent CrossMab (CH1-CL exchanged, WO 2009/080253), IgG1 knobs-into-holes
Take B2: the results for the Kd with IL-17 A/F and with human IL17A/A were 0.25 nM and 0.15 nM, respectively. Besides, the binding result in the assay with IL-17 F/F is listed as “no binding (tested: IL17 injected starting with 50 nM)”. In addition, the “IC50 (nM) per valency, Tweak induced HFLS proliferation (CellTiter Glo)” value in assay [4] was found to be 0.065 nM.

B3: <TWEAK> 301 (rabbit) (antibody, V domains shown)
VH: QSLEESGGGLVKPGASLTLTCTASGFTFNANYWICWVRQAPGKGLEWIACIYGGGNSGAYYASWATGRFTISRTSSTTVTLQMTSLTAADTATYFCARGPISRDLWGPGTLVTVSL
VL: DVVMTQTPASVSEPVGGTVTIKCQASQSIYSSLAWYQQKPGQPPKLLIYDAFDLASGVSSRFTGSGSGTQFTLTISDLECADAATYYCQSTDYGNSWDGNPFGGGTEVVVT
notes: Rabbit parent antibody; purified antibody or hybridoma supernatant was used
On to B3, for which the “Inhibition of IL-8 Secretion IC50” value in assay [1] came out at 128 ng/mL. Further, the IC50 stood at 4.7 ng/mL in assay [5] and 3.4 ng/mL in assay [3].

B4: <TWEAK> 304 (rabbit) (antibody, V domains shown)
VH: QSLEESGGDLVKPGASLTLTCKASGFSFSSTYYMCWVRQAPGKGLEWIGCIYVGSSGAPYYASWAKGRFTISKTSSTTVALQMTSLTPADTATYVCTRSVHFGDLWGPGTLVTVSS
VL: DVVMTQTPSPVSAAVGGTVTIKCQASQSIGNDLSWYQQKPGQRPKLLIYSVSTLASGVPSRFKGSGSGTEYSLTISDVQCADAATYYCQCIDYGNNYVGNTFGGGTEVVVK
notes: Rabbit parent antibody
In the case of B4, the “Inhibition of IL-8 Secretion IC50” value in assay [1] came to 109 ng/mL. Further, the 50% inhibitory concentration (IC50) in assay [5] was determined as 3.6 ng/mL; in assay [3] it was 2.8 ng/mL.

B5: <TWEAK> 304chi (antibody, human IgG1, kappa, V domains shown)
VH: B4 VH
VL: DVVMTQTPSPVSAAVGGTVTIKCQASQSIGNDLSWYQQKPGQRPKLLIYSVSTLASGVPSRFKGSGSGTEYSLTISDVQCADAATYYCQCIDYGNNYVGNTFGGGTEVVVKR
notes: as for B1
Consider B5, for which the “Inhibition of IL-8 Secretion IC50” value in assay [1] stood at 122 ng/mL. The “t/2 diss [min] 25° C.” value in assay [2] came to 37 min. Further, the IC50 in assay [3] was 2.6 ng/mL.
